In US20260274910A1, “SINGLE FUSION PROTEIN AND PHARMACEUTICAL COMPOSITION” (MEDI&GENE INC., priority 2023, published 2026):

Key:
ATP5B protein = ATP5B protein (Homo sapiens, UniProt P06576); assay: SPR binding ability test; conditions: ATP5B on CM5 chip, flow rate 50 μl/min, relative to control shortened sequence (SEQ ID NO: 12)
Description: In order to evaluate substitutable residues within a sequence, an SPR (surface plasma resonance) test was conducted. Specifically, the ATP5B protein was conjugated to a CM5 chip by amine-conjugation, and then the contact of each test substance was observed under the condition of a flow rate of 50 μl/min, and the refractive index was measured. Thereafter, by converting each binding unit, the binding ability was compared and evaluated. […] A decrease of 10% or more in binding ability was considered to indicate a negative effect of the substitution.

[1] = test system: SH-SY5Y dopaminergic neuron cell line; assay: Reactive oxygen in neuron cells under rotenone; assay type: cell-based; conditions: 1 µM rotenone + 100 nM test substance, 24 hours; compared with rotenone alone
Description: (§1) The SH-SY5Y dopaminergic neuron cell line was treated with 1 µM of a toxic substance, rotenone and 100 nM of each test substance simultaneously. After 24 hours, the MTT cell viability or the effect of reducing reactive oxygen was observed.

[2] = test system: MDA-MB-231 triple-negative breast cancer cell line; assay: MTT cell viability in breast cancer cells; assay type: cell-based; conditions: 1 μM, 48 hours; compared with Control (PBS), SEQ ID NO: 4 and SEQ ID NO: 5
Description: Next, the test substances, the fusion proteins (SEQ ID NO: 1, 2, 3, 7, 14, 15) and shortened sequences (SEQ ID NOs: 9, 10, 11, 12) were treated to MDA-MB-231 triple-negative breast cancer cell line at a concentration of 1 μM (Control: PBS) for 48 hours. Thereafter, the cells were washed with PBS once, and the cells were suspended in serum-free buffer. The MTT (3-[4,5-dimethylthiazol-2-yl]-2,5-diphenyltetrazolium bromide) substance was added thereto at 0.5 mg/ml and incubated at 37° C. for 2 hours. Then, they were washed with PBS once, and the cells were lysed with DMSO for 15 minutes. The solution was transferred to a new plate and the absorbance was measured at 590 nm using a microplate reader.

MDA-MB-231 cell line = assay: Reactive oxygen generation (DCF-FA) in breast cancer cells; assay type: cell-based; conditions: 1 μM, 24 hours; compared with Control and SEQ ID NO: 5
Description: In addition, in order to examine generation of reactive oxygen that plays an important role in cancer cell death, each test substance was treated to the MDA-MB-231 cell line at a concentration of 1 μM (Control: PBS) for 24 hours. Then, the cells were stained with DCF-FA and their fluorescence values were observed and compared at 485/535 nm.

cAMP (cyclic AMP) = assay: cAMP level (hTRF) in undifferentiated 3T3-L1 cells; assay type: cell-based, mouse; conditions: undifferentiated 3T3-L1, 100 nM with 0.5 mM IBMX, 30 minutes; compared with Control and SEQ ID NO: 5
Description: To observe the functionality of the fusion proteins related to lipid metabolism, the 3T3-L1 mouse pre-adipocyte cell line was used as the cell line itself (undifferentiated) or by differentiating into adipocytes. Differentiation into the adipocytes was performed by inducing primary differentiation for the 3T3-L1 cells in a medium containing DMEM, 10% FBS, 10 μg/ml insulin, 0.5 mM IBMX (3-Isobutyl-1-methylxanthine), and 1 μM dexamethasone for 2 days, and inducing secondary differentiation with a medium containing DMEM, 10% FBS, and 10 μg/ml insulin for the remaining 4 days. The adipocytes in which differentiation was finally completed were treated with the test substances at a concentration of 100 nM for 30 hours (Control: PBS) and then used for each test.
Next, changes in cAMP (cyclic AMP), a signaling mediator contributing to lipolysis and energy metabolism were evaluated in the undifferentiated adipocytes. The undifferentiated cells were treated with the test substances at a concentration of 100 nM (Control: PBS) with 0.5 mM IBMX for 30 minutes. Thereafter, the level of cAMP was evaluated by the hTRF (Homogeneous Time Resolved Fluorescence) method (using CAMP Gs dynamic kit from Cisbio). As a result of the measurement, it was confirmed that the level of cAMP was higher in the groups treated with the fusion proteins (SEQ ID NOs: 1, 2, 3, 7, 13, 14, 15) and shortened sequences (sequences 9, 10, 11) compared with the Control and His tag-wild-type substance (1-81) (SEQ ID NO: 5) (FIG. 7).

[3] = test system: SH-SY5Y dopaminergic neuron cell line; assay: MTT cell viability of neuron cells under rotenone; assay type: cell-based; conditions: 1 µM rotenone + 100 nM test substance, 24 hours; compared with rotenone alone
Description: as §1

Chain of ATP5B protein (P06576 48-529, species assumed): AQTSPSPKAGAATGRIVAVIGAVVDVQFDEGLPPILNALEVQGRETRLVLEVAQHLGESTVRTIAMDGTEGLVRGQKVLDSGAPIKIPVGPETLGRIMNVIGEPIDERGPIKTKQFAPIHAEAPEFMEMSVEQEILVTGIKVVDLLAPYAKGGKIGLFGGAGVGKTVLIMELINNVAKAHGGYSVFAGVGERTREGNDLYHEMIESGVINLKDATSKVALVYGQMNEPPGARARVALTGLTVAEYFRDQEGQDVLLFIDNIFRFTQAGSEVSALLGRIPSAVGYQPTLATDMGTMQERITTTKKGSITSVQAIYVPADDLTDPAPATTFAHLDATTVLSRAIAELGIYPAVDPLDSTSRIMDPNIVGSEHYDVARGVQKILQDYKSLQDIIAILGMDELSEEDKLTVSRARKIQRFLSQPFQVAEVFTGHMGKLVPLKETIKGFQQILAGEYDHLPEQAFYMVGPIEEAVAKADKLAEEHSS

| Substance | Binding (%) (ATP5B protein) | further results |
| --- | --- | --- |
| SEQ ID NO: 31: Shortened substance (8-35) amino acid Ala substituted (26) VDRGAGSIREAGGAFGKRAQAEEERYFR | 94.1 |  |
| SEQ ID NO: 37: Shortened substance (8-35) amino acid Ala substituted (33) VDRGAGSIREAGGAFGKREQAEEERAFR | 145.8 |  |
| SEQ ID NO: 34: Shortened substance (8-35) amino acid Ala substituted (30) VDRGAGSIREAGGAFGKREQAEAERYFR | 94.0 |  |
| SEQ ID NO: 28: Shortened substance (8-35) amino acid Ala substituted (23) VDRGAGSIREAGGAFAKREQAEEERYFR | 102.3 |  |
| SEQ ID NO: 20: Shortened substance (8-35) amino acid Ala substituted (13) VDRGAASIREAGGAFGKREQAEEERYFR | 98.5 |  |
| SEQ ID NO: 19: Shortened substance (8-35) amino acid Ala substituted (11) VDRAAGSIREAGGAFGKREQAEEERYFR | 100.0 |  |
| SEQ ID NO: 11: Synthetic peptide: Shortened amino acid modified substance (10-49; H49K mutation introduced) RGAGSIREAGGAFGKREQAEEERYFRAQSREQLAALKKHK |  | Generation of reactive oxygen [1]: significantly inhibited; Cell viability (MTT) [2]: significantly low; Reactive oxygen generation (MDA-MB-231 cell line): generated higher; Level of cAMP (cAMP (cyclic AMP)): higher; Cell viability (MTT) [3]: significantly increased |
| SEQ ID NO: 18: Shortened substance (8-35) amino acid Ala substituted (10) VDAGAGSIREAGGAFGKREQAEEERYFR | 104.2 |  |
| SEQ ID NO: 10: Synthetic peptide: Shortened substance (1-47) GSDQSENVDRGAGSIREAGGAFGKREQAEEERYFRAQSREQLAALKK (listed as Homo sapiens) |  | Generation of reactive oxygen [1]: significantly inhibited; Cell viability (MTT) [2]: significantly low; Reactive oxygen generation (MDA-MB-231 cell line): generated higher; Level of cAMP (cAMP (cyclic AMP)): higher; Cell viability (MTT) [3]: significantly increased |
| SEQ ID NO: 16: Shortened substance (8-35) amino acid Ala substituted (8) ADRGAGSIREAGGAFGKREQAEEERYFR | 101.4 |  |
| SEQ ID NO: 21: Shortened substance (8-35) amino acid Ala substituted (14) VDRGAGAIREAGGAFGKREQAEEERYFR | 98.8 |  |
| SEQ ID NO: 17: Shortened substance (8-35) amino acid Ala substituted (9) VARGAGSIREAGGAFGKREQAEEERYFR | 91.6 |  |
| SEQ ID NO: 39: Shortened substance (8-35) amino acid Ala substituted (35) VDRGAGSIREAGGAFGKREQAEEERYFA | 109.6 |  |
| SEQ ID NO: 22: Shortened substance (8-35) amino acid Ala substituted (15) VDRGAGSAREAGGAFGKREQAEEERYFR | 99.3 |  |
| SEQ ID NO: 9: Synthetic peptide: Shortened substance (1-60) (GSDQSENVDRGAGSIREAGGAFGKREQAEEERYFRAQSREQLAALKKHHEEEIVHHKKEI; listed as Homo sapiens) |  | Generation of reactive oxygen [1]: significantly inhibited; Cell viability (MTT) [2]: significantly low; Reactive oxygen generation (MDA-MB-231 cell line): generated higher; Level of cAMP (cAMP (cyclic AMP)): higher; Cell viability (MTT) [3]: significantly increased |
| SEQ ID NO: 36: Shortened substance (8-35) amino acid Ala substituted (32) VDRGAGSIREAGGAFGKREQAEEEAYFR | 426.0 |  |
| SEQ ID NO: 24: Shortened substance (8-35) amino acid Ala substituted (17) VDRGAGSIRAAGGAFGKREQAEEERYFR | 168.7 |  |

Now from value to substance, other results behind:

| Binding (%) (ATP5B protein) | Substance | further results |
| --- | --- | --- |
| 85.2 | SEQ ID NO: 30: Shortened substance (8-35) amino acid Ala substituted (25) VDRGAGSIREAGGAFGKAEQAEEERYFR |  |
| 96.7 | SEQ ID NO: 33: Shortened substance (8-35) amino acid Ala substituted (29) VDRGAGSIREAGGAFGKREQAAEERYFR |  |
| 89.5 | SEQ ID NO: 32: Shortened substance (8-35) amino acid Ala substituted (27) VDRGAGSIREAGGAFGKREAAEEERYFR |  |
| 92.1 | SEQ ID NO: 38: Shortened substance (8-35) amino acid Ala substituted (34) VDRGAGSIREAGGAFGKREQAEEERYAR |  |
| 89.6 | SEQ ID NO: 25: Shortened substance (8-35) amino acid Ala substituted (19) VDRGAGSIREAAGAFGKREQAEEERYFR |  |
| 100.5 | SEQ ID NO: 29: Shortened substance (8-35) amino acid Ala substituted (24) VDRGAGSIREAGGAFGAREQAEEERYFR |  |
| 94.0 | SEQ ID NO: 27: Shortened substance (8-35) amino acid Ala substituted (22) VDRGAGSIREAGGAAGKREQAEEERYFR |  |
| 100.0 | SEQ ID NO: 12: Synthetic peptide: Shortened substance (8-35) VDRGAGSIREAGGAFGKREQAEEERYFR (listed as Homo sapiens) | Cell viability (MTT) [2]: significantly low |
| 68.0 | SEQ ID NO: 26: Shortened substance (8-35) amino acid Ala substituted (20) VDRGAGSIREAGAAFGKREQAEEERYFR |  |
| 157.9 | SEQ ID NO: 35: Shortened substance (8-35) amino acid Ala substituted (31) VDRGAGSIREAGGAFGKREQAEEARYFR |  |
| 97.0 | SEQ ID NO: 23: Shortened substance (8-35) amino acid Ala substituted (16) VDRGAGSIAEAGGAFGKREQAEEERYFR |  |
